Results: patent publication US20260218282A1

Target: pMHC monomer containing HLA-A*02:01 restricted NY-ESO-1 C9V peptide (human)
Assay: capture of TCR-transduced PBMCs on pMHC-labeled nanovials (20 µg/ml pMHC), flow cytometry

fraction of bound live cells with NGFR expression: 93.9%
Substance: 1G4 TCR
